Molecular target: Insulin Receptor (Isoform B by the title of Table 1; 'the A isoform of the insulin receptor' by the text) (UniProt P06213)
Test: competitive displacement of radiolabelled tracer; relative to wild-type human insulin

For “GluA8, GlyA21 derivative of AspB10, 2F-PheB24, GluB29-human insulin (T-0348) (ligand)”, the relative affinity was 44%.

Work on “GluA8 derivative of AspB10, ortho-fluoro-PheB24, GluB29-insulin (T-0339) (ligand)” yielded a relative affinity of 43%.

For “GlyA21 derivative of AspB10, 2F-PheB24, LysB28, ProB29-human insulin (T-0346) (ligand)”, the relative affinity was 59%.

“GluA8 derivative of AspB10, 2F-PheB24, LysB28, ProB29-human insulin (T-0338) (ligand)” showed a relative affinity of 52%.

In the case of “GlyA21 derivative of AspB10, ortho-fluoro-PheB24, GluB29-insulin (T-0347) (ligand)”, the relative affinity was 42%.

— US20170304361A1
